For test [1], the target named is human SEZ6 on NTX tumor cells (human) (UniProt Q53EL9). Briefly: flow cytometry dot plot of LU86 NTX tumor cells, CD324 against MOPC isotype control. Background: Flow cytometry measures light scatter and fluorescence of single cells or particles in a stream.
For test [2] the target is unchanged. In words: flow cytometry dot plot of LU117 NTX tumor cells, CD324 against MOPC isotype control.
Test [3] has the same target. Briefly: flow cytometry dot plot of LU64 NTX tumor cells, CD324 against MOPC isotype control.

In test [1], MOPC (antibody) showed a % of cells in the lower right quadrant (CD324-, MOPC+) of 0.014%. Moreover, the % of cells in the upper right quadrant (CD324+, MOPC+) in test [1] was 0.483%; in test [2], 0.347%; in test [3], 0.597%.

The record behind these values is patent US20190022241A1.
